For assay [1], the target named is T1, human podocalyxin (human, UniProt O00592 23-558).
T1 construct: also called hPodo; hPodocalyxin
T1 sequence: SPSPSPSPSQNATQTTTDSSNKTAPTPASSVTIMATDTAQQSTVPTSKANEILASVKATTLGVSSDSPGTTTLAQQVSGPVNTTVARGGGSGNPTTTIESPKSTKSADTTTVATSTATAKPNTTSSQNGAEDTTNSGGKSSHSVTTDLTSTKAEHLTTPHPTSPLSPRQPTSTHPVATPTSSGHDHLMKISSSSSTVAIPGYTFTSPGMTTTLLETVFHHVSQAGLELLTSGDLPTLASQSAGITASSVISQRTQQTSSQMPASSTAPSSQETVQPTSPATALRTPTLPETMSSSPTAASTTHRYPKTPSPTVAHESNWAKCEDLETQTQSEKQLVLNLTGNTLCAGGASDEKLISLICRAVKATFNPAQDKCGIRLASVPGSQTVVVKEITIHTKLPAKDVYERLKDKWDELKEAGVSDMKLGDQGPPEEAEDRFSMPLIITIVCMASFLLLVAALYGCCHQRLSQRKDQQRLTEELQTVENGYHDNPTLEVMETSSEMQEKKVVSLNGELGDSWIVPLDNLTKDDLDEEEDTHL
The assay is described as follows: flow cytometry, control, 1:125, hPodo/MDA-MB-231 transient transfectants.

Assay [2] deals with T1, human podocalyxin. The assay is described as follows: flow cytometry, control, 1:125, MDA-MB-231 cells.
In assay [3] the target is T1, human podocalyxin. Description: flow cytometry, control, Neat, hPodo/MDA-MB-231 transient transfectants. A general note: Flow cytometry measures light scatter and fluorescence of single cells or particles in a stream.
In assay [4] the target is T1, human podocalyxin. The assay is described as follows: flow cytometry, control, 2:15 (so in the source), hPodo/MDA-MB-231 transient transfectants.
The target in assay [5] is T1, human podocalyxin. Description: flow cytometry, control, 1:5, MDA-MB-231 cells.
In assay [6] the target is T1, human podocalyxin. The assay is described as follows: flow cytometry, control, 1:5, hPodo/MDA-MB-231 transient transfectants.
For assay [7], the target named is T1, human podocalyxin. Description: flow cytometry, control, 2:15 (so in the source), MDA-MB-231 cells.
Assay [8] addresses T1, human podocalyxin. The assay is described as follows: flow cytometry, control, Neat, MDA-MB-231 cells.
Assay [9] deals with T1, human podocalyxin. Description: flow cytometry, control antibody, MDA-MB-231 cells.
Assay [10] addresses T1, human podocalyxin. The assay is described as follows: flow cytometry, well H01 (left column, cell type not labelled: MDA-MB-231 or MDA-MB-231/hPodo); vertical gate at FL4-H about 10^3.2, cutting the right edge of the control population; the gate differs from that of the Ab-1 panels.
The target of assay [11] is T1, human podocalyxin. The assay is described as follows: flow cytometry, control antibody, 293 HEK cells.
Assay [12] concerns the target T1, human podocalyxin. The assay is described as follows: flow cytometry, control antibody, OVCAR10 cells.
The target in assay [13] is T1, human podocalyxin. The assay is described as follows: flow cytometry, control antibody, OVCAR3 cells.
Assay [14] addresses T1, human podocalyxin. The assay is described as follows: flow cytometry, control antibody, T47-D cells.
Assay [15] concerns the target T1, human podocalyxin. The assay is described as follows: flow cytometry, well H03 (right column, cell type not labelled: MDA-MB-231 or MDA-MB-231/hPodo); vertical gate at FL4-H about 10^3.2; the gate differs from that of the Ab-1 panels.
The target of assay [16] is T1, human podocalyxin. The assay is described as follows: flow cytometry, control antibody, CaOV3 cells.
Assay [17] concerns the target T1, human podocalyxin. The assay is described as follows: flow cytometry, control antibody, A172 cells.
Assay [18] addresses T1, human podocalyxin. The assay is described as follows: flow cytometry, control antibody, HUVEC cells.
The target of assay [19] is T1, human podocalyxin. The assay is described as follows: flow cytometry, control antibody, MCF7 cells.
Assay [20] deals with T1, human podocalyxin. The assay is described as follows: flow cytometry, control antibody, SKOV3 cells.
Assay [21] has as its target T1, human podocalyxin. Description: cross competition FACS, MDA-MB-231 cells; row antibody (isotype control) unlabelled 25 ug/mL first; competitor (detected): B-mlgG1 5 ug/mL (control).
For assay [22], the target named is T1, human podocalyxin. The assay is described as follows: cross competition FACS, MDA-MB-231 cells; row antibody (isotype control) unlabelled 25 ug/mL first; competitor (detected): B-Ova 12 5 ug/mL (control).
The target in assay [23] is T1, human podocalyxin. Description: cross competition FACS, MDA-MB-231 cells; FACS Buffer row (no unlabelled antibody); B-mlgG1 5 ug/mL (control).
Assay [24] concerns the target T1, human podocalyxin. Description: cross competition FACS, MDA-MB-231 cells; row antibody (isotype control) unlabelled 25 ug/mL first; competitor (detected): B-3G2.2 5 ug/mL.
Assay [25] deals with T1, human podocalyxin. Description: cross competition FACS, MDA-MB-231 cells; row antibody (isotype control) unlabelled 25 ug/mL first; competitor (detected): biotinylated Rb/Hu Podo83 5 ug/mL.

As to Rb IgG (antibody), the flow cytometry fluorescence (name not given) is 645 with human podocalyxin [1]; 431 with human podocalyxin [2]; 762 with human podocalyxin [3]; 617 with human podocalyxin [4]; 467 with human podocalyxin [5]; 660 in the assay with human podocalyxin [6]. Also, the flow cytometry fluorescence (name not given) was determined as 438 in the assay with human podocalyxin [7] and 574 with human podocalyxin [8].
With Control Rb/HuIgG1 (antibody), the Live cell GeoMean FL (geometric mean fluorescence units) worked out at 477 in the assay with human podocalyxin [9]; 446 in the assay with human podocalyxin [11]; 653 with human podocalyxin [12]; 629 in the assay with human podocalyxin [13]; 667 with human podocalyxin [14]; 767 with human podocalyxin [16]. Moreover, the Live cell GeoMean FL (geometric mean fluorescence units) with human podocalyxin [17] is 644; with human podocalyxin [18] it was 489; with human podocalyxin [19], 657. In addition, the Q2-LR % of gated cells (FL4-H above the gate) was determined as 17.2% with human podocalyxin [10] and 3.5% in the assay with human podocalyxin [15].
As to MsIgG2a (antibody), the Live cell GeoMean FL (geometric mean fluorescence units) with human podocalyxin [9] is 478; with human podocalyxin [11], 556; with human podocalyxin [12], 618; with human podocalyxin [13] it was 708; with human podocalyxin [14], 787; in the assay with human podocalyxin [16], 892. The Live cell GeoMean FL (geometric mean fluorescence units) is 797 with human podocalyxin [17], 484 with human podocalyxin [18], 1130 in the assay with human podocalyxin [19] and 485 with human podocalyxin [20].
On to mlgG1 (antibody), for which the FACS signal of the biotinylated antibody named under assay in the assay with human podocalyxin [21] came to 414; with human podocalyxin [22], 458; with human podocalyxin [24], 26600; with human podocalyxin [25] it was 124000. Besides, the FACS signal of the biotinylated antibody with human podocalyxin [23] turned out to be 419.

For the origin of these results see US20190367606A1 (CENTRE FOR DRUG RESEARCH AND DEVELOPMENT, published 2019).
